{"source": "paper PMC5656002", "about": "(ACS infectious diseases, 2016)", "key": {"[1]": {"biological_target": "SME-1 beta-lactamase (Serratia marcescens) (UniProt P52682)", "conditions": "cited from earlier work"}, "[2]": {"biological_target": "KPC-2 beta-lactamase (Klebsiella pneumoniae) (UniProt Q9F663)", "conditions": "cited from earlier work"}, "[3]": {"biological_target": "CTX-M-14 beta-lactamase (Escherichia coli)", "conditions": "cited from earlier work"}, "[4]": {"biological_target": "T1, KPC-2 β-lactamase (purified) (UniProt Q9F663 30-293)", "test": "cell-based or functional assay"}, "[5]": {"biological_target": "T1, KPC-2 β-lactamase (purified)", "test": "enzyme inhibition assay"}, "[6]": {"biological_target": "T1, KPC-2 β-lactamase (purified)", "test": "enzyme inhibition assay", "remark": "listed apart in the source"}, "[7]": {"biological_target": "T2, TEM-1 β-lactamase (purified) (UniProt P62593 24-286)", "test": "enzyme inhibition assay"}, "[8]": {"biological_target": "T2, TEM-1 β-lactamase (purified)", "test": "enzyme inhibition assay", "remark": "listed apart in the source"}, "[9]": {"biological_target": "T1, KPC-2 β-lactamase (purified)", "test": "cell-based or functional assay", "remark": "listed apart in the source"}, "[10]": {"biological_target": "T1, KPC-2 β-lactamase (purified)", "test": "enzyme inhibition assay", "remark": "listed apart in the source"}, "[11]": {"biological_target": "T1, KPC-2 β-lactamase (purified)", "test": "activity-based association and dissociation kinetics"}, "SHV-1 β-lactamase": {"biological_target": "T3, SHV-1 β-lactamase (UniProt P0AD64 22-286)", "T3 sequence (looked up)": "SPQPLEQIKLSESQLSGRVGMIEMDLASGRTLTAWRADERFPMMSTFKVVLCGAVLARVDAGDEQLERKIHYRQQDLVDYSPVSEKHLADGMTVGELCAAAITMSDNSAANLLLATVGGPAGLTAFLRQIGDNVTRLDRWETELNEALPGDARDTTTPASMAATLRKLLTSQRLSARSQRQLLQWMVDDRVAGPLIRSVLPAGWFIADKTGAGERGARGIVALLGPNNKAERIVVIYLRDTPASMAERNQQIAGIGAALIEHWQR", "test": "enzyme inhibition assay"}, "[12]": {"biological_target": "T2, TEM-1 β-lactamase (purified)", "test": "enzyme inhibition assay", "remark": "listed apart in the source"}, "CTX-M-14 β-lactamase": {"biological_target": "CTX-M-14 β-lactamase (UniProt Q9L5C7 1-291)", "test": "enzyme inhibition assay"}, "SME-1 β-lactamase": {"biological_target": "T4, SME-1 β-lactamase (UniProt P52682 28-294)", "T4 sequence": "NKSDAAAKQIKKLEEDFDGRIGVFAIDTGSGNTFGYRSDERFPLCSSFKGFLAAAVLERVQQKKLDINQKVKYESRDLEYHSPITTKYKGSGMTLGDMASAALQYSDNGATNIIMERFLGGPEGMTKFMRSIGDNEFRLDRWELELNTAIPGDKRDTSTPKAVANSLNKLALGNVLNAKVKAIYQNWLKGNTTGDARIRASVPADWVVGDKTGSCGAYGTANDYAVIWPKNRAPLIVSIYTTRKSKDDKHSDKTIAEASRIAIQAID", "test": "enzyme inhibition assay"}}, "note": "Read-outs that look alike come from different tables or passages of the source.", "data": [{"molecule": "BLIP (from UniProt P35804)", "values": [{"measurement": "Ki", "setting": "[1]", "result": 2.4, "unit": "nM"}, {"measurement": "Ki", "setting": "[2]", "result": 0.082, "unit": "nM"}, {"measurement": "Ki", "setting": "[3]", "result": 800, "unit": "nM"}]}, {"molecule": "β-lactamase inhibitory protein (BLIP), wild type (natural protein, Streptomyces clavuligerus, UniProt P35804 37-201, looked up) AGVMTGAKFTQIQFGMTRQQVLDIAGAENCETGGSFGDSIHCRGHAAGDYYAYATFGFTSAAADAKVDSKSQEKLLAPSAPTLTLAKFNQVTVGMTRAQVLATVGQGSCTTWSEYYPAYPSTAGVTLSLSCFDVDGYSSTGFYRGSAHLWFTDGVLQGKRQWDLV", "values": [{"measurement": "ampicillin MIC of E. coli TP142 (chromosomal blaKPC-2) carrying the BLIP plasmid", "setting": "[4]", "result": 1, "unit": "µg/mL"}, {"measurement": "Ki", "setting": "[5]", "result": "1.2 ± 0.4", "unit": "nM"}, {"measurement": "Ki", "setting": "[6]", "result": "0.2 ± 0.2", "unit": "nM"}]}, {"molecule": "BLIP E73K (natural protein) AGVMTGAKFTQIQFGMTRQQVLDIAGAENCETGGSFGDSIHCRGHAAGDYYAYATFGFTSAAADAKVDSKSQKKLLAPSAPTLTLAKFNQVTVGMTRAQVLATVGQGSCTTWSEYYPAYPSTAGVTLSLSCFDVDGYSSTGFYRGSAHLWFTDGVLQGKRQWDLV", "values": [{"measurement": "ampicillin MIC of E. coli TP142 (chromosomal blaKPC-2) carrying the BLIP plasmid", "setting": "[4]", "result": 1.5, "unit": "µg/mL"}, {"measurement": "Ki", "setting": "[5]", "result": "13.7 ± 6.6", "unit": "nM"}, {"measurement": "Ki", "setting": "[7]", "result": "835 ± 172", "unit": "nM"}, {"measurement": "Ki", "setting": "[6]", "result": "8.9 ± 6.3", "unit": "nM"}, {"measurement": "Ki", "setting": "[8]", "result": "2530 ± 578", "unit": "nM"}]}, {"molecule": "BLIP E73K:K74T (natural protein) AGVMTGAKFTQIQFGMTRQQVLDIAGAENCETGGSFGDSIHCRGHAAGDYYAYATFGFTSAAADAKVDSKSQKTLLAPSAPTLTLAKFNQVTVGMTRAQVLATVGQGSCTTWSEYYPAYPSTAGVTLSLSCFDVDGYSSTGFYRGSAHLWFTDGVLQGKRQWDLV", "values": [{"measurement": "ampicillin MIC of E. coli TP142 (chromosomal blaKPC-2) carrying the BLIP plasmid", "setting": "[9]", "result": "≤ 3", "unit": "µg/mL"}, {"measurement": "Ki", "setting": "[10]", "result": "1.6 ± 0.8", "unit": "nM"}, {"measurement": "Kd", "setting": "[11]", "result": 1.3, "unit": "nM"}, {"measurement": "koff", "setting": "[11]", "result": 0.0004, "unit": "s⁻¹"}, {"measurement": "kon", "setting": "[11]", "result": 300000, "unit": "M⁻¹ s⁻¹"}]}, {"molecule": "BLIP E73K:R160G (natural protein) AGVMTGAKFTQIQFGMTRQQVLDIAGAENCETGGSFGDSIHCRGHAAGDYYAYATFGFTSAAADAKVDSKSQKKLLAPSAPTLTLAKFNQVTVGMTRAQVLATVGQGSCTTWSEYYPAYPSTAGVTLSLSCFDVDGYSSTGFYRGSAHLWFTDGVLQGKGQWDLV", "values": [{"measurement": "ampicillin MIC of E. coli TP142 (chromosomal blaKPC-2) carrying the BLIP plasmid", "setting": "[9]", "result": "≤ 3", "unit": "µg/mL"}, {"measurement": "Ki", "setting": "[10]", "result": "128 ± 30", "unit": "nM"}, {"measurement": "Kd", "setting": "[11]", "result": 60, "unit": "nM"}, {"measurement": "koff", "setting": "[11]", "result": 0.03, "unit": "s⁻¹"}, {"measurement": "kon", "setting": "[11]", "result": 500000, "unit": "M⁻¹ s⁻¹"}]}, {"molecule": "BLIP K74T (natural protein) AGVMTGAKFTQIQFGMTRQQVLDIAGAENCETGGSFGDSIHCRGHAAGDYYAYATFGFTSAAADAKVDSKSQETLLAPSAPTLTLAKFNQVTVGMTRAQVLATVGQGSCTTWSEYYPAYPSTAGVTLSLSCFDVDGYSSTGFYRGSAHLWFTDGVLQGKRQWDLV", "values": [{"measurement": "ampicillin MIC of E. coli TP142 (chromosomal blaKPC-2) carrying the BLIP plasmid", "setting": "[4]", "result": 1.5, "unit": "µg/mL"}, {"measurement": "Ki", "setting": "[5]", "result": "1.8 ± 2.8", "unit": "nM"}, {"measurement": "Ki", "setting": "[7]", "result": "110 ± 23", "unit": "nM"}, {"measurement": "Ki", "setting": "[6]", "result": "1.5 ± 1", "unit": "nM"}, {"measurement": "Ki", "setting": "[8]", "result": "151 ± 97", "unit": "nM"}]}, {"molecule": "BLIP K74T:R160G (natural protein) AGVMTGAKFTQIQFGMTRQQVLDIAGAENCETGGSFGDSIHCRGHAAGDYYAYATFGFTSAAADAKVDSKSQETLLAPSAPTLTLAKFNQVTVGMTRAQVLATVGQGSCTTWSEYYPAYPSTAGVTLSLSCFDVDGYSSTGFYRGSAHLWFTDGVLQGKGQWDLV", "values": [{"measurement": "ampicillin MIC of E. coli TP142 (chromosomal blaKPC-2) carrying the BLIP plasmid", "setting": "[9]", "result": "≤ 3", "unit": "µg/mL"}, {"measurement": "Ki", "setting": "[10]", "result": "150 ± 57", "unit": "nM"}]}, {"molecule": "BLIP K74T:W112D (natural protein) AGVMTGAKFTQIQFGMTRQQVLDIAGAENCETGGSFGDSIHCRGHAAGDYYAYATFGFTSAAADAKVDSKSQETLLAPSAPTLTLAKFNQVTVGMTRAQVLATVGQGSCTTDSEYYPAYPSTAGVTLSLSCFDVDGYSSTGFYRGSAHLWFTDGVLQGKRQWDLV", "values": [{"measurement": "ampicillin MIC of E. coli TP142 (chromosomal blaKPC-2) carrying the BLIP plasmid", "setting": "[9]", "result": "≤ 3", "unit": "µg/mL"}, {"measurement": "Ki", "setting": "SHV-1 β-lactamase", "result": "> 10000", "unit": "nM"}, {"measurement": "Ki", "setting": "[10]", "result": "0.4 ± 0.2", "unit": "nM"}, {"measurement": "Ki", "setting": "[12]", "result": "> 10000", "unit": "nM"}, {"measurement": "Ki", "setting": "CTX-M-14 β-lactamase", "result": "> 10000", "unit": "nM"}, {"measurement": "Ki", "setting": "SME-1 β-lactamase", "result": 450, "unit": "nM"}, {"measurement": "Kd", "setting": "[11]", "result": 0.13, "unit": "nM"}, {"measurement": "koff", "setting": "[11]", "result": "3e-05", "unit": "s⁻¹"}, {"measurement": "kon", "setting": "[11]", "result": 200000, "unit": "M⁻¹ s⁻¹"}]}, {"molecule": "BLIP R160G (natural protein) AGVMTGAKFTQIQFGMTRQQVLDIAGAENCETGGSFGDSIHCRGHAAGDYYAYATFGFTSAAADAKVDSKSQEKLLAPSAPTLTLAKFNQVTVGMTRAQVLATVGQGSCTTWSEYYPAYPSTAGVTLSLSCFDVDGYSSTGFYRGSAHLWFTDGVLQGKGQWDLV", "values": [{"measurement": "ampicillin MIC of E. coli TP142 (chromosomal blaKPC-2) carrying the BLIP plasmid", "setting": "[4]", "result": 0.75, "unit": "µg/mL"}, {"measurement": "Ki", "setting": "[5]", "result": "0.9 ± 0.4", "unit": "nM"}, {"measurement": "Ki", "setting": "[7]", "result": "236 ± 115", "unit": "nM"}, {"measurement": "Ki", "setting": "[6]", "result": "0.4 ± 0.3", "unit": "nM"}, {"measurement": "Ki", "setting": "[8]", "result": "236 ± 85", "unit": "nM"}]}, {"molecule": "BLIP W112D (natural protein) AGVMTGAKFTQIQFGMTRQQVLDIAGAENCETGGSFGDSIHCRGHAAGDYYAYATFGFTSAAADAKVDSKSQEKLLAPSAPTLTLAKFNQVTVGMTRAQVLATVGQGSCTTDSEYYPAYPSTAGVTLSLSCFDVDGYSSTGFYRGSAHLWFTDGVLQGKRQWDLV", "values": [{"measurement": "ampicillin MIC of E. coli TP142 (chromosomal blaKPC-2) carrying the BLIP plasmid", "setting": "[4]", "result": 1, "unit": "µg/mL"}, {"measurement": "Ki", "setting": "[5]", "result": "1080 ± 551", "unit": "nM"}, {"measurement": "Ki", "setting": "[7]", "result": "1190 ± 701", "unit": "nM"}, {"measurement": "Ki", "setting": "[6]", "result": "587 ± 63", "unit": "nM"}, {"measurement": "Ki", "setting": "[8]", "result": "1270 ± 212", "unit": "nM"}]}]}
